# B1: CPEB3 Ribozyme (parent)
# chain: GGGGGCCACAGCAGAAGCGUUCACGUCGCGGCCCCUGUCAGAUUCUGGUGAAUCUGCGAAUUCUGCUGU
# Variants of: B1
# Assay: self-cleavage, relative activity (ratio to wild type); higher = more cleavage; co-transcriptional
row,Variant,self-cleavage
1,C39A U49G,0.928
2,C39A U49C,0.811
3,U38G A60C,0.137
4,U38C U53C,0.763
5,U38C U53A,0.883
6,U38C U53G,0.682
7,C39G U46C,0.903
8,C39A G68A,0.925
9,U38G G68C,0.175
10,U38G G68U,0.273
11,C39U A40U,0.624
12,U38C G47C,0.938
13,C39A U69A,0.908
14,C39A U69C,1.01
15,U38A G58C,0.921
16,C39U G50A,0.91
17,C39A G47C,0.945
18,C39G U67A,0.927
19,C39G U67G,0.965
20,C39G A40G,0.812
21,C39A C45G,0.659
22,U38C C45G,0.92
23,C39G C66A,0.531
24,U38G U61C,0.289

row,Variant,self-cleavage
1,U38G U61A,0.267
2,U38G U61G,0.436
3,C39U G68A,0.99
4,C39G A59G,0.947
5,U38A U44C,0.802
6,U38C G48U,1
7,U38C G48C,0.986
8,C39U U46A,0.934
9,C39A A42U,0.551
10,U38A U53G,0.706
11,U38A U53A,0.864
12,C39G G68U,0.988
13,C39A U46A,0.925
14,U38C U43G,0.866
15,U38G U46G,0.308
16,U38C U55G,0.242
17,U38G U53G,0.255
18,U38G U53A,0.287
19,U38G U53C,0.24
20,C39U C66G,0.579
21,U38C G50U,0.952
22,C39G U69A,0.967
23,C39G U69G,1
24,U38A U64A,0.799

row,Variant,self-cleavage
1,U38A U64G,0.858
2,U38G G48A,0.21
3,U38G A51G,0.258
4,U38G A51U,0.295
5,C39U G56U,0.922
6,U38C U67G,0.925
7,C39A G58C,0.907
8,C39G U61C,0.394
9,U38A U43A,0.784
10,C39G C57G,0.361
11,C39G C57U,0.327
12,C39G C57A,0.303
13,U38G C63G,0.224
14,U38G C63U,0.229
15,C39G U43C,0.75
16,C39U C45A,0.759
17,C39U C45G,0.74
18,U38G U62G,0.183
19,U38G U62A,0.291
20,U38C U46G,0.921
21,C39U U55C,0.752
22,C39U U55A,0.752
23,U38G C45G,0.27
24,C39G G65C,0.297

row,Variant,self-cleavage
1,C39G G65U,0.442
2,U38C A60U,0.331
3,U38G G47C,0.201
4,C39G G58C,0.929
5,C39G G41A,0.486
6,C39G U64A,0.636
7,U38A G56U,0.875
8,U38A G56C,0.466
9,U38C C63G,0.693
10,U38C C63A,0.71
11,C39U A51C,0.737
12,C39U A51G,0.892
13,U38A U67C,0.943
14,C39G C63G,0.513
15,U38C U69G,1.05
16,C39U U43G,0.405
17,C39U U43A,0.49
18,U38G A59U,0.228
19,C39U U44G,0.693
20,C39U U44C,0.514
21,C39A U43G,0.295
22,C39U U49C,0.927
23,C39A U64G,0.61
24,C39A U64A,0.467

row,Variant,self-cleavage
1,U38A G65A,0.733
2,C39G U55C,0.693
3,C39G U55G,0.863
4,U38C C57A,0.3
5,U38C C57U,0.409
6,C39U U53A,0.582
7,U38C C66U,0.947
8,U38C A52G,0.909
9,U38C A52U,0.895
10,U38C U44G,0.851
11,U38C A59C,0.306
12,U38C A59G,1.01
13,C39U G48C,0.939
14,U38G C39G,1.01
15,U38G C39U,0.322
16,C39A G48U,0.903
17,C39A G48C,0.912
18,U38G C57G,0.121
19,U38C U61A,0.759
20,U38C U61G,0.759
21,C39G U49G,0.994
22,U38G A40U,0.179
23,U38G A40C,0.17
24,U38G A40G,0.257

row,Variant,self-cleavage
1,U38G G58U,0.294
2,U38G G65C,0.161
3,C39A U55A,0.825
4,C39A G41A,0.383
5,C39A G41C,0.396
6,C39A C57A,0.337
7,U38C C54A,0.61
8,U38C U62A,0.791
9,C39A U62G,0.428
10,C39A U62C,0.595
11,U38A U62G,0.742
12,C39U G65C,0.438
13,U38G C54U,0.29
14,U38G C54G,0.302
15,C39U A59U,0.527
16,C39U A59C,0.445
17,U38G A52U,0.156
18,U38C G41U,0.705
19,U38A U69G,0.971
20,U38A U69C,1.03
21,C39A A51U,0.728
22,U38G G41U,0.238
23,U38G G41A,0.245
24,U38G U44A,0.149

row,Variant,self-cleavage
1,U38A U46C,0.954
2,U38A U46A,0.941
3,C39G G48C,0.945
4,C39U G41C,0.445
5,C39U G47A,0.948
6,C39U G47U,0.973
7,U38C U64A,0.772
8,C39U A42U,0.736
9,C39A A59G,0.911
10,C39A A59U,0.446
11,U38C,0.961
12,U38G,0.242
13,C39G G50A,0.962
14,C39G G50U,0.957
15,C39U C57A,0.34
16,C39U C57G,0.403
17,C39A C66G,0.535
18,U38G G50A,0.204
19,U38G G50C,0.161
20,U38C A51U,0.935
21,U38A G68A,0.922
22,C39A U61A,0.601
23,U38C U49A,0.955

# Reference: the RNAGym collection of RNA variant scans (doi:10.7554/elife.80360)
